Experimental data published in patent publication US6451759 (University of California, dated 2002).

Biological target: T1, Fas on Jurkat T cells (human, UniProt P25445 26-335)
T1 sequence (looked up): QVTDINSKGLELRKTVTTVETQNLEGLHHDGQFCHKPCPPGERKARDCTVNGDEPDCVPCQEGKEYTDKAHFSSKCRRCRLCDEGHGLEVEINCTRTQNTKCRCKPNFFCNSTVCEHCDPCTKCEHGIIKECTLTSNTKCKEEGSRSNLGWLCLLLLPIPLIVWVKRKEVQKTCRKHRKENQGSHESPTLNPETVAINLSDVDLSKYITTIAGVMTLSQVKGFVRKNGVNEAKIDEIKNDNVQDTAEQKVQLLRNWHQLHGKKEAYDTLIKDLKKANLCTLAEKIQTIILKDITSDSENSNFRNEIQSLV
Assay: cell-based or functional assay

SQMHTASSLEKQIGHPSPPPEKKELRKVAHLTGKSN (ligand) [deletion mutant 2 of human FasL]
percent specific 51Cr release from Jurkat target cells (cytotoxicity assay, transfected COS-7 effector cells): ~2 fold over wild-type FasL
